Series [1] deals with T1, mouse liver microsomal G-6-Pase (Mus musculus, UniProt P35576).
T1 construct: hepatic G-6-Pase activities of microsomes isolated from adult mouse liver; from tissue; host or cells: liver microsomes of fasted Swiss Webster mice
T1 sequence (P35576 1-357): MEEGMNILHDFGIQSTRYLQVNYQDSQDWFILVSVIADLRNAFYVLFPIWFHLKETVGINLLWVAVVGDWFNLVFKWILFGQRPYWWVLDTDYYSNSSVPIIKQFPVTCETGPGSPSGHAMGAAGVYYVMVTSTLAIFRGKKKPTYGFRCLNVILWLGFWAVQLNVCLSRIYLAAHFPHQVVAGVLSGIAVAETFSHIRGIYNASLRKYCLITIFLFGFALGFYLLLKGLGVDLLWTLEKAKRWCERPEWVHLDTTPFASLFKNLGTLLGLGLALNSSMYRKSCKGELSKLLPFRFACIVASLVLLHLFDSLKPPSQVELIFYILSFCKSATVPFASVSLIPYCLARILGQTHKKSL
The experiment in a line: Phosphohydrolase assay, adult mouse liver microsomes. Conditions: competitive inhibitor of glucose-6-P phosphohydrolysis, read-out: Vanadate, Ki. The class given is biochemical. (In general: Liver microsomes are vesicles of endoplasmic reticulum, rich in cytochrome P450 enzymes.)

The next series addresses human G-6-Pase (Homo sapiens, UniProt P35575, A192T). The following applies: read-out: Vanadate K1; phG-6-Pase-1-transfected COS-1 microsomes. The method, then: (§1) The functional identity of the human G-6-Pase cDNA was studied in a manner similiar to that described above with the murine G-6-Pase. Detailed biochemical studies were performed on microsomal preparations isolated from COS-1 cells transiently transfected with the phG-6-Pase-1 cDNA and compared with activities in human liver microsomes.

The target of series [2] is human liver microsomal G-6-Pase (Homo sapiens, UniProt P35575). Conditions: read-out: Vanadate K1; human liver microsomes. The method, then:
as §1

For the next series, the target named is T2, murine G-6-Pase (Mus musculus, UniProt P35576).
T2 sequence (P35576 1-357): T1 sequence (P35576 1-357)
The following applies: read-out: Ki values for vanadate observed in the present study; both microsomal preparations (transfected COS-1 cells and adult mouse livers).

The target of series [3] is glucose-6-P phosphohydrolase activity. The following applies: read-out: Ki for vanadate reported; permeable hepatocytes or rat microsomes; cited from earlier work.
Substrate in series [4]: O=P(O)(O)OC[C@H]1OC(O)[C@@H](O)[C@@H](O)[C@@H]1O
As to the kind of experiment: cells, lysate or membranes named. The following applies: other: disrupted adult mouse liver microsomes; mean ± SEM; pH 6.5; 30.0 °C.

Substrate in series [5]: O=P(O)(O)OC[C@H]1OC(O)[C@H](O)[C@@H](O)[C@@H]1O
The experiment in a line: cells, lysate or membranes named. Conditions: pH 6.5, 30.0 °C.

Series [6] can be described thus: Thermal stability of glucose-6-P phosphohydrolase activity (37° C., 10 min, pH 5.0). The class given is biochemical. Conditions: for Thermal Stability (enzyme activities remaining after heat treatment): deoxycholate (0.2%) disrupted microsomes. Here is the method:
Hepatic G-6-Pase is characterized by its high thermal lability; G-6-Pase is completely inactivated by incubating the microsomal preparation (or homogenate) at pH 5.0 for 10 min at 37° C., Hers, H. G., in Advances in Metabolic Disorders Vol 1 (eds Levine, R., Luft, L.), 1-44 (Academic Press, London, 1964).

Series [7] is described as follows: Carbamyl-P:glucose phosphotransferase activity in disrupted microsomes. The class given is biochemical, mouse. The following applies: deoxycholate-disrupted microsomes, linear region of enzyme concentration curves. Here is the method:
Phosphotransferase activity was determined by a modification of the method described by Jorgenson and Nordlie, supra. Reaction mixture (10 μl) contained 100 mM HEPES buffer, pH 6.5, 50 mM glucose, […] D-glucose (10^5 cpm/reaction, 256 mCi/mmol, ICN Biochemicals, Irvine, Calif.), 4 mM carbamyl-P, and deoxycholate-disrupted microsomal proteins. […] The samples were then centrifuged at 10,000×g for 5 min, and 2 to 4 μl of supernatant applied to a PEI-cellulose plate (J. T. Baker, Inc., Phillipsburg, N.J.). Glucose-6-P was separated from glucose by thin-layer chromatography developed in water. Spots were quantitated on an AMBIS Radioanalytic Imaging System (San Diego, Calif.).

The nature of series [8]: pH profile of glucose-6-P phosphohydrolase activity in disrupted microsomes. In kind it is biochemical, mouse.
Series [9] in a line: Phosphohydrolase activity of site-directed human G-6-Pase mutants in transfected cells. In kind it is biochemical. Conditions: arginine to cysteine substitution; pSVL constructs in transfected cells. The text has this:
The two outside PCR primers were 01 (5'-[…]-3' (Seq. ID No.:29), nucleotides 77 to 96) and 02 (5'-[…]-3' (Seq. ID No.:30), nucleotides 1153 to 1130). […] 01 and 02 contain an additional XhoI or XbaI linker, respectively. […] The amplified fragments were digested with XhoI and XbaI and ligated into a pSVL vector. All constructs were confirmed by DNA sequencing.

Numbering of substitutions follows the chain as printed. Numbers in names are those of the source.

Sequence of human liver microsomal G-6-Pase (P35575 whole entry): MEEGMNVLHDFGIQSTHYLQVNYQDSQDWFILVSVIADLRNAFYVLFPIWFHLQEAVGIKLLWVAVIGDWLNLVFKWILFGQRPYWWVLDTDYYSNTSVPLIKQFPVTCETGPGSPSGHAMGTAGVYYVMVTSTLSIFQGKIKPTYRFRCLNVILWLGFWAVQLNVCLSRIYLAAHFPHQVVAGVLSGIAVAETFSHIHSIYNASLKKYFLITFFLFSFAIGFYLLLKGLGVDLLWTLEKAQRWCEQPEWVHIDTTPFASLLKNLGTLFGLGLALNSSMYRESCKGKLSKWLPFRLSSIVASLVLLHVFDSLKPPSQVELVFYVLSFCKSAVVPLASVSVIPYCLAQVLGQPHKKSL

For the molecule `[O]=[V]([OH])([OH])[OH]` [Vanadate], the Ki was 330 µM in [1]; 1680 µM on human G-6-Pase; 1610 µM in series [2]; 330 to 340 µM at murine G-6-Pase; 1.5 µM in series [3].

B1: mouse liver microsomal G-6-Pase (Mus musculus) (protein)
chain: T1 sequence (P35576 1-357)
On to B1, for which the Km – broadly, the concentration of substrate that gives half-maximal velocity – in series [4] was 670 µM; in [5] (other: disrupted adult mouse liver microsomes, mean ± SEM), 680 µM; in series [5] (other: intact adult mouse liver microsomes) it was 3300 µM.

B2: pSVLmG-6-Pase-Transfacted COS: recombinant murine G-6-Pase in microsomes of COS-1 cells transfected with pSVLmG-6-Pase (protein, UniProt P35576 1-357, looked up)
Glucose-6-phosphatase …: T1 sequence (P35576 1-357)
modifications: in COS-1 microsomes
notes: recombinant murine G-6-Pase in microsomes of COS-1 cells transfected with pSVLmG-6-Pase
For the molecule B2, the “Thermal Stability (enzyme activities remaining after heat treatment)” value in [6] (37° C. for 10 min at pH 5.0, murine study) turned out to be 1.6%. For the same molecule, the “glucose-6-P phosphohydrolase activity after incubation at 37° C. for 10 min at pH 5.0 (in words)” value in series [6] (murine study) is on record as “abolished”. Moreover, the “Phosphotransferase, Carbamyl-P: Glucose” value in [7] is recorded as 0.22 μmol/min/mg of microsomal prot. Also, the “pH optimum of glucose-6-P phosphohydrolase activity” value in [8] was roughly 6.5.

B3: human G-6-Pase (Homo sapiens; A192T) (protein)
chain: MEEGMNVLHDFGIQSTHYLQVNYQDSQDWFILVSVIADLRNAFYVLFPIWFHLQEAVGIKLLWVAVIGDWLNLVFKWILFGQRPYWWVLDTDYYSNTSVPLIKQFPVTCETGPGSPSGHAMGTAGVYYVMVTSTLSIFQGKIKPTYRFRCLNVILWLGFWAVQLNVCLSRIYLAAHFPHQVVAGVLSGIAVTETFSHIHSIYNASLKKYFLITFFLFSFAIGFYLLLKGLGVDLLWTLEKAQRWCEQPEWVHIDTTPFASLLKNLGTLFGLGLALNSSMYRESCKGKLSKWLPFRLSSIVASLVLLHVFDSLKPPSQVELVFYVLSFCKSAVVPLASVSVIPYCLAQVLGQPHKKSL
B3: the Km in series [5] (other: phG-6-Pase-1-transfected COS-1 microsomes) stood at 1770 ± 130 µM.

B4: G-6-Pase-Cys^83: human G-6-Pase mutant, arginine 83 changed to cysteine (protein, UniProt P35575 1-357, looked up, variant R83C)
Glucose-6-phosphatase …: B3 chain with R83C, T192A
On to B4, for which, in series [9], the “G-6-Pase phosphohydrolase activity of mutant” value is “abolished”.

B5: G-6-Pase-Cys^295: human G-6-Pase mutant, arginine 295 changed to cysteine (protein, UniProt P35575 1-357, looked up, variant R295C)
Glucose-6-phosphatase …: B3 chain with T192A, R295C
As for B5, in series [9], the “G-6-Pase phosphohydrolase activity of mutant” value is “abolished”.

B6: human liver microsomal G-6-Pase (Homo sapiens) (protein)
chain: B3 chain with T192A
Turning to B6, the Km in series [5] (other: human liver microsomes) was 1710 ± 110 µM.

B7: phG-6-Pase-1-COS: recombinant human G-6-Pase in microsomes of COS-1 cells transiently transfected with phG-6-Pase-1 cDNA (protein, UniProt P35575 1-357, looked up)
Glucose-6-phosphatase …: B3 chain with T192A
modifications: in COS-1 microsomes
notes: recombinant human G-6-Pase in microsomes of COS-1 cells transiently transfected with phG-6-Pase-1 cDNA
As for B7, in series [6] (10 min at 37° C., 50 mM cacodylate buffer pH 5.0, human study), the “Thermal Stability (enzyme activities remaining after heat treatment)” value is recorded as 6.0%. For the same molecule, in series [6] (human study), the “glucose-6-P phosphohydrolase activity after incubation at 37° C. for 10 min at pH 5.0 (in words)” value is on record as “virtually abolished”.

The record behind these values is US5460942A, “The catalytic moiety of the glucose-6-phosphatase system: the gene and protein and related mutations” (The United States of America as represented by the …, priority 1993, dated 1995).
